This is an account of results in patent US20220340905, “NUCLEIC ACID APTAMER SPECIFICALLY RECOGNIZING B-LACTOGLOBULIN AND USE THEREOF” (JIANGNAN UNIVERSITY, published 2022).

Data set [1] deals with T1, beta-lactoglobulin (UniProt P02754 P02754:17-178).
T1 sequence: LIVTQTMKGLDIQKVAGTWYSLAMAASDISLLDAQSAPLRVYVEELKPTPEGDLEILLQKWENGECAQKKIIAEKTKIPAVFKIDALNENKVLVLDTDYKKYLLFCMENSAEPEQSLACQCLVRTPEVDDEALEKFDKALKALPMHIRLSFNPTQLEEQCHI
The experiment in a line: magnetic bead strand-displacement fluorescence assay, 37 C. Conditions: label: 5'-FAM (fluorescence assay). On the procedure: (§1) Various concentrations (10 nM, 25 nM, 50 nM, 75 nM, 100 nM, 150 nM, 200 nM, and 300 nM) of the aptamer were respectively mixed with the biotinylated complementary short chain at a molar ratio of 1:1.5, denatured at 95° C. for 10 min, and slowly cooled to 37° C. for 3 h until the two were fully hybridized. The mixture was reacted with a certain amount of streptavidin-coupled magnetic beads (where the weight ratio of the aptamer to the magnetic beads was 1:400) at 37° C. and 200 rpm for 2 h to immobilize the aptamer on the magnetic beads by the strong binding between the biotin and streptavidin. The immobilized magnetic beads were incubated with 50 μg/mL β-lactoglobulin in a 300 μL system at 37° C. and 200 rpm. After magnetic separation, the supernatant was subjected to fluorescence measurement at an excitation wavelength of 485 nm and an emission wavelength of 522 nm. The relative fluorescence intensity at various aptamer concentrations was nonlinearly fitted by GraphPad prism 5.0 software, and the dissociation constant Kd of the aptamer was calculated (see Table 1). […] The homologous sequences (Lg-9 and Lg-16) of the aptamer Lg-18 also have good ability of binding to β-lactoglobulin.

Data set [2] concerns the target T1, beta-lactoglobulin. The experiment in a line: magnetic bead strand-displacement fluorescence assay, 37 C; aptamer hybridised to biotinylated short chain, released by 50 ug/mL protein; ITC in 10 mM Tris-HCl. The settings on record: label: 5'-FAM (fluorescence assay); stem-loop (Mfold predicted). The method, then: as §1
The target in data set [3] is BSA (bovine serum albumin) (Bos taurus, UniProt P02769 P02769:25-607). The data set is described as follows: specificity control, 50 ug/mL protein, 200 nM aptamer on magnetic beads; text states good specificity, values only in figure. Conditions: label: 5'-FAM (fluorescence assay); stem-loop (Mfold predicted). The method, then: (§2) Various concentrations (10 nM, 25 nM, 50 nM, 75 nM, 100 nM, 150 nM, 200 nM, and 300 nM) of the aptamer were respectively mixed with the biotinylated complementary short chain at a molar ratio of 1:1.5, denatured at 95° C. for 10 min, and slowly cooled to 37° C. for 3 h until the two were fully hybridized. The mixture was reacted with a certain amount of streptavidin-coupled magnetic beads (where the weight ratio of the aptamer to the magnetic beads was 1:400) at 37° C. and 200 rpm for 2 h to immobilize the aptamer on the magnetic beads by the strong binding between the biotin and streptavidin. The immobilized magnetic beads were incubated with 50 μg/mL β-lactoglobulin in a 300 μL system at 37° C. and 200 rpm. After magnetic separation, the supernatant was subjected to fluorescence measurement at an excitation wavelength of 485 nm and an emission wavelength of 522 nm. The relative fluorescence intensity at various aptamer concentrations was nonlinearly fitted by GraphPad prism 5.0 software, and the dissociation constant Kd of the aptamer was calculated (see Table 1). […]
(§3) The specificity of the aptamer (Lg-18) was evaluated by the same method. […] After magnetic separation, the fluorescence intensity of the supernatant was measured respectively, and then the specificity of the aptamer was evaluated.

A further data set deals with T2, alpha-lactalbumin (UniProt P00711 P00711:20-142).
T2 sequence: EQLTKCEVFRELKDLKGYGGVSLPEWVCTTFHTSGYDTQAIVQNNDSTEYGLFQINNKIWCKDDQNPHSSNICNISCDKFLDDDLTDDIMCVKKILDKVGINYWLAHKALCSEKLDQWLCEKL
The data set is described as above. Conditions: label: 5'-FAM (fluorescence assay); stem-loop (Mfold predicted). The method, then: as §2, §3

Chain of BSA (bovine serum albumin) (P02769 25-607, one chain of several): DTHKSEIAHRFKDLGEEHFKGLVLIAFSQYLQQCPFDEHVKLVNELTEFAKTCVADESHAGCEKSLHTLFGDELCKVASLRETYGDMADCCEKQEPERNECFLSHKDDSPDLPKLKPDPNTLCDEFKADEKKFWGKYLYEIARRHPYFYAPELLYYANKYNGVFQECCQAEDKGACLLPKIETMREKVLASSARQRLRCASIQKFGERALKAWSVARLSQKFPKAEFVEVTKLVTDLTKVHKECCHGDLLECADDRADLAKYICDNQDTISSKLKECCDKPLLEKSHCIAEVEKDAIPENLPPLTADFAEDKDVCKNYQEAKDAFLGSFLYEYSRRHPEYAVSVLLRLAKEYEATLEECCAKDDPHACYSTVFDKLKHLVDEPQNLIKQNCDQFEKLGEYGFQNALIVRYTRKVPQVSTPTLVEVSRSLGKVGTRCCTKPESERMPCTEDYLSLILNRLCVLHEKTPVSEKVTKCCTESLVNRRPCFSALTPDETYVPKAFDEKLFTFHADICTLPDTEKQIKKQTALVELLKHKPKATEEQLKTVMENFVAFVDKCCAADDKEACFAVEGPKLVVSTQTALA

B1: Lg-16 (ssDNA)
DNA: AGCAGCACAGAGGTCAGATGTCGTTTGTGGCTGTCAATTGGTGTGTTTACCTGTTTTGGCCTATGCGTGCTACCGTGAA
For B1, the dissociation constant (Kd) in the data set with beta-lactoglobulin [1] was 65.8 nM.

B2: Lg-9 (ssDNA)
DNA: AGCAGCACAGAGGTCAGATGGTTTTGTTGGGTCTGCTACGGACTTTGTTGACCTTTGCTCCCTATGCGTGCTACCGTGAA
In turn, B2 showed an equilibrium dissociation constant (Kd) with beta-lactoglobulin [1] of 71.8 nM.

B3: Lg-18 (ssDNA)
DNA: AGCAGCACAGAGGTCAGATGTTCGGCCTTTGCGTTAACGAACTTCTAGCTATGCGGCGTACCTATGCGTGCTACCGTGAA
Take B3: in the data set with beta-lactoglobulin [2], the dissociation constant (Kd) was 65 nM. Further, the binding result (in data set [3]; with alpha-lactalbumin) was “no binding” in each case.
